Where a chain is given by its changes, count along the chain named. Numbers in names are those of the source. Blank lines part the entries; values can stand above or below the binder they belong to.
Experiments:
human CD19 [1] = target: T1, human CD19 (human, UniProt P15391 20-556); test: flow cytometry competition for binding with FMC63
T1 sequence: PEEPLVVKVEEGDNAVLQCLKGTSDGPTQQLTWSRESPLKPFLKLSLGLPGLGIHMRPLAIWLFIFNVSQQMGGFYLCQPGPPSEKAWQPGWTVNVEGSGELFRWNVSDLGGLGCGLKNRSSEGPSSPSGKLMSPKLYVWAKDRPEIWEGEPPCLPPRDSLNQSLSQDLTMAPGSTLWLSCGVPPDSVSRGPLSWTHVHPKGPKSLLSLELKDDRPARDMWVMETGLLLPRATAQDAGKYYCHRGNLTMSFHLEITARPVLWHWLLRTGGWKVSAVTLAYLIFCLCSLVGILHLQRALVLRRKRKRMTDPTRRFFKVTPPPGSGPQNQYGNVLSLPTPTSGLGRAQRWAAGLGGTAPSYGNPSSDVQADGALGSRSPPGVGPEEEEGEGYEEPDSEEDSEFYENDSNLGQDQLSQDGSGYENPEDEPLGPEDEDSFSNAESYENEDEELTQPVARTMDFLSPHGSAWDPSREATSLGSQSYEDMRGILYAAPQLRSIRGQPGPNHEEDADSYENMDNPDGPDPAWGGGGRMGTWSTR

human CD19 [2] = target: T1, human CD19; test: flow cytometry on CD19-expressing cells (n = 1)
Source text: (§1) Various clones were titrated and their binding affinity (EC50) to various CD19-expressing cells assessed by flow cytometry.

human CD19 [3] = target: T1, human CD19; test: flow cytometry on Ramos cells; probe concentration said to be about its EC50
human CD19 [4] = target: T1, human CD19; test: flow cytometry competition for binding with FMC63 (n = 3)
human CD19 [5] = target: T1, human CD19; test: flow cytometry on CD19-expressing cells (n = 2)
human CD19 [6] = target: T1, human CD19; test: flow cytometry on CD19-expressing cells, summary
human CD19 [7] = target: T1, human CD19; test: flow cytometry competition for binding with FMC63, summary (n = 2)
human CD19 [8] = target: T1, human CD19; test: flow cytometry, scFv titrated on CD19-expressing K562 cells (FIG. 3C)
human CD19 [9] = target: T1, human CD19; test: flow cytometry on CD19-expressing cells (n = 5)
human CD19 [10] = target: T1, human CD19; test: flow cytometry, scFv titrated on CD19-expressing K562 cells (FIG. 3B)
human CD19 [11] = target: T1, human CD19; test: flow cytometry competition for binding with FMC63 (n = 2)
human CD19 [12] = target: T1, human CD19; test: flow cytometry, scFv titrated on CD19-expressing K562 cells (FIG. 4, one plate)
human CD19 [13] = target: T1, human CD19; test: flow cytometry competition with labeled FMC63 IgG on CD19-expressing cells (FIG. 5B)
Description: (§2) Competition binding assays were performed to assess competition of various antibodies for binding to CD19-expressing cells.

human CD19 [14] = target: T1, human CD19; test: flow cytometry, scFv titrated on CD19-expressing K562 cells (FIG. 3A)
human CD19 [15] = target: T1, human CD19; test: flow cytometry competition for binding with FMC63, summary (n = 3)
Description: as §2

human CD19 [16] = target: T1, human CD19; test: flow cytometry, scFv titrated on CD19-expressing K562 cells (FIG. 4, another plate)
human CD19 [17] = target: T1, human CD19; test: flow cytometry on CD19-expressing cells, summary (n = 7)
human CD19 [18] = target: T1, human CD19; test: flow cytometry on CD19-expressing cells (n = 7)
Source text: as §1

human CD19 [19] = target: T1, human CD19; test: flow cytometry on CD19-expressing cells, summary (n = 5)
human CD19 [20] = target: T1, human CD19; test: flow cytometry competition for binding with FMC63, summary (n = 1)
human CD19 [21] = target: T1, human CD19; test: flow cytometry competition for binding with FMC63 (n = 1)
human CD19 [22] = target: T1, human CD19; test: flow cytometry on CD19-expressing cells, summary (n = 1)
human CD19 [23] = target: T1, human CD19; test: flow cytometry competition for binding with FMC63 (n = 6)
human CD19 [24] = target: T1, human CD19; test: flow cytometry on CD19-expressing cells (n = 4)
human CD19 [25] = target: T1, human CD19; test: flow cytometry, in vitro-translated FLAG-tagged scFv on CD19-expressing vs mock transfected K562 cells (FIG. 8D)

IC50 (human CD19 [1]): > 200 nM
EC50 (human CD19 [2]): 71.8 nM
B1: Clone 835 scFv (scFv)
scFv: EVQLVESGGGLVQPGRSLRLSCAASGFTFDDYAMHWVRLAPGKGLEWVSGISWNSGRIGYADSVKGRFTISRDNAKNSLFLQMNSLRAKDTAVYYCARDQGYHYYDSAEHAFDIWGQGTMVTVSSGGGGSGGGGSGGGGSQSVLTQPRSVSGSPGQSVTISCTGPISGVGDYTSVSWYQHYPGKTPKLIIYDVTQRPSGVPNRFSGSKSGNTASLTISGLQADDEADYYCCSYEAPTHTYVFGTGTKLTVL
notes: Human scFv

EC50 (human CD19 [3]): ~0.5 nM
B2: SJ25C1 IgG1 (antibody, V domains shown)
VH: EVKLQQSGAELVRPGSSVKISCKASGYAFSSYWMNWVKQRPGQGLEWIGQIYPGDGDTNYNGKFKGQATLTADKSSSTAYMQLSGLTSEDSAVYFCARKTISSVVDFYFDYWGQGTTVTVSS
VL: DIELTQSPKFMSTSVGDRVSVTCKASQNVGTNVAWYQQKPGQSPKPLIYSATYRNSGVPDRFTGSGSGTDFTLTITNVQSKDLADYFCQQYNRYPYTSGGGTKLEI
notes: Murine IgG1, FITC-labeled in the assay; also called FITC-labeled SJ25C1

IC50 (human CD19 [4]): 14.6 nM
EC50 (human CD19 [5]): 5.2 nM
B3: Clone 241 scFv (scFv)
scFv: EVQLVQSGGGLVQPGRSLRLSCAASGFTFDDYAMHWVRQAPGKGLEWVSGISWNSGSIGYADSVKGRFTISRDNAKNSLYLQMNSLRAEDTAVYYCARDQGYHYYDSAEHAFDIWGQGTVVTVSSGGGGSGGGGSGGGGSAIRMTQSPSSLSASVGDRVTVTCQASQDISNYLNWYQQKPGRAPKLLIYDASNVKAGVPSRFSGGGSGTDFTLTISSLQPEDFATYYCQQSYSTPQAYTFGQGTKLDIK
notes: Human scFv

binding result (human CD19 [25]): binds
B10: Clone 213 scFv (scFv)
scFv: QVQLVQSGGGVVQPGRSLRLSCAASGFTFDDYAMHWVRQAPGKGLEWVSGISWNSGSIGYADSVKGRFTISRDNAKNSLYLQMNSLRAEDTAVYYCARDQGYHYYDSAEHAFDIWGQGTVVTVSSGGGGSGGGGSGGGGSEIVLTQSPATLSLSPGETATLSCRASQSINHYLAWYQQKPGQAPRLLIYDASNRATGIPARFSGSGSGTDFTLTISSLEPEDFATYYCQQSYSHPRMYTFGQGTKLEIK

Continued, binder first:

B4: Clone 76 scFv (scFv)
scFv: EVQLVESGGGLVQPGRSLRLSCAASGFTFDDYAMHWVRQAPGKGLEWVSGISWNSGRIGYADSVKGRFTISRDNAKNSLFLQMNSLRAEDTAVYYCARDQGYHYYDSAEHAFDIWGQGTVVTVSSGGGGSGGGGSGGGGSQSVLTQPPSVSAAPGQEVTISCSGSSSNIGNNYVSWYQQLPGTAPKLLIYDNDKRPSGIPDRFSGSKSGTSATLGITGLQTGDEADYYCGTWDGNLSAVFGGGTKVTVL
notes: Human scFv, VH-(G4S)3-VL
EC50 (human CD19 [6]): 8.04 nM
IC50 (human CD19 [7]): 18.2 nM
EC50 (human CD19 [8]): 8.8 nM
EC50 (human CD19 [9]): 7 nM
EC50 (human CD19 [10]): 7.9 nM
IC50 (human CD19 [11]): 18.2 nM

B5: Clone 18 scFv (scFv)
scFv: EVQLVESGGGLVQPGRSLRLSCAASGFTFDDYAMHWVRQAPGKGLEWVSGISWNSGRIGYADSVKGRFTISRDNAKNSLFLQMNSLRAEDTAVYYCARDQGYHYYDSAEHAFDIWGQGTVVTVSSGGGGSGGGGSGGGGSQSALTQPRSVSGFPGQSVTISCTGTTSDDVSWYQQHPGKAPQLMLYDVSKRPSGVPHRFSGSRSGRAASLIISGLQTEDEADYFCCSYAGRYNSVLFGGGTKLTVL
notes: Human scFv, VH-(G4S)3-VL
EC50 (human CD19 [12]): 4.79 nM
IC50 (human CD19 [13]): 24 nM
EC50 (human CD19 [14]): 3.79 nM
IC50 (human CD19 [15]): 20.1 nM
EC50 (human CD19 [10]): 7.1 nM
EC50 (human CD19 [16]): 3.11 nM
EC50 (human CD19 [17]): 4.1 nM

B6: Clone 18B scFv (scFv)
scFv: B5 scFv with C226S
notes: Clone 18 with cysteine to serine at Kabat position 89 of VL; also called germline variant of clone 18
IC50 (human CD19 [4]): 32.9 nM
EC50 (human CD19 [18]): 4.9 nM
EC50 (human CD19 [19]): 5.4 nM
EC50 (human CD19 [10]): 9.3 nM
IC50 (human CD19 [20]): 28 nM

B7: Clone 5 scFv (scFv)
scFv: EVQLVESGGGLVQPGRSLRLSCAASGFTFDDYAMHWVRQAPGKGLEWVSGISWNSGRIGYADSVKGRFTISRDNAKNSLFLQMNSLRAEDTAVYYCARDQGYHYYDSAEHAFDIWGQGTMVTVSSGGGGSGGGGSGGGGSSYELTQDPAVSVALGQTVRITCQGDSLRSYYASWYQQKPGQAPVLVIYDKNNRPSGIPDRFSGSSSGNTASLTITGAQAEDEADYYCNSRDSSGNNWVFGGGTKLTVL
notes: Human scFv, VH-(G4S)3-VL
EC50 (human CD19 [12]): 15.8 nM
IC50 (human CD19 [21]): 50 nM
EC50 (human CD19 [22]): 15.8 nM
EC50 (human CD19 [2]): 15.8 nM
IC50 (human CD19 [20]): 50 nM

B8: Clone 17 scFv (scFv)
scFv: EVQLVESGGGLVQPGRSLRLSCAASGFTFDDYAMHWVRQAPGKGLEWVSGISWNSGRIGYADSVKGRFTISRDNAKNSLFLQMNSLRAEDTAVYYCARDQGYHYYDSAEHAFDIWGQGTMVTVSSGGGGSGGGGSGGGGSQSALTQPASVSGSPGQSITIFCTGTSSDVGGYNYVSWYQQLPGTAPKLLIYSNNQRPSGVPDRFSGSKSGTSASLAISGLRSEDEADYYCAAWDDSLSVVFGGGTKLTVL
notes: Human scFv, VH-(G4S)3-VL
EC50 (human CD19 [6]): 11.7 nM
EC50 (human CD19 [12]): 8.32 nM
IC50 (human CD19 [7]): 35.4 nM
EC50 (human CD19 [9]): 11.6 nM
EC50 (human CD19 [14]): 14.9 nM
IC50 (human CD19 [11]): 35.4 nM

B9: Clone 488 scFv (scFv)
scFv: B10 scFv with Q1E, V11L, E247D
notes: Human scFv
IC50 (human CD19 [23]): 6.1 nM
EC50 (human CD19 [24]): 2.9 nM

Source: patent US20240018256A1 (JUNO THERAPEUTICS, published 2024)
